Source: paper PMC10952621

Tests used:
[1] = target: LQTS-associated calmodulin variant D131H (human); experiment: ITC; Kv7.1-HB peptide titrated into CaM (~50 uM) in the cell; 50 mM Na-HEPES, 100 mM KCl, 2 mM MgCl2, pH 7.5, 5 mM CaCl2; 25 °C; two-site binding model
[2] = target: LQTS-associated calmodulin variant D95V (human); experiment: as above
[3] = target: LQTS-associated calmodulin variant N97I (human); experiment: as above
[4] = target: LQTS-associated calmodulin variant D131H (human); experiment: ITC; peptide titrated into CaM (~50 uM) in the cell; 50 mM Na-HEPES, 100 mM KCl, 2 mM MgCl2, pH 7.5, 1 mM EGTA (Ca2+-free); 25 °C; one-site binding model
[5] = target: LQTS-associated calmodulin variant D95V (human); experiment: as above
[6] = target: LQTS-associated calmodulin variant N97I (human); experiment: as above

Substance: Kv7.1-HB(507-536) peptide, helix B of the KCNQ1 C-terminus
- KD, first binding event [1]: 9.7 nM
- KD, second binding event [1]: 908 nM
- N, first binding event [1]: 0.8 sites
- N, second binding event [1]: 1.4 sites
- dH, first binding event [1]: -14.3 kcal/mol
- dH, second binding event [1]: -15.5 kcal/mol
- KD, first binding event [2]: 6.9 nM
- KD, second binding event [2]: 725 nM
- N, first binding event [2]: 0.8 sites
- N, second binding event [2]: 0.8 sites
- dH, first binding event [2]: -13.2 kcal/mol
- dH, second binding event [2]: -14.9 kcal/mol
- KD, first binding event [3]: 4.7 nM
- KD, second binding event [3]: 775 nM
- N, first binding event [3]: 1.1 sites
- N, second binding event [3]: 1.1 sites
- dH, first binding event [3]: -12.9 kcal/mol
- dH, second binding event [3]: -11.5 kcal/mol
- dH [4]: 3.3 kcal/mol
- stoichiometry N [4]: 0.9 sites
- Kd [5]: 3900 nM
- dH [5]: 5.8 kcal/mol
- stoichiometry N [5]: 0.9 sites
- Kd [6]: 2400 nM
- dH [6]: 4.7 kcal/mol
- stoichiometry N [6]: 0.8 sites
